The numbers were not newly measured in publication PMC9357288, which cites them from elsewhere.

The target in the series is Hck SH3 (Homo sapiens) (UniProt P08631).
Sequence of UniProt P08631 (P08631 75-141): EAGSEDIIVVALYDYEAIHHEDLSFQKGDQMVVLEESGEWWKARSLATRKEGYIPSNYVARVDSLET

For Nef (from UniProt P04324), the Kd is 250 nM.

As usually defined, the Kd is the constant that tells how readily two partners part at equilibrium.
